From paper PMC8591536, “DNA asymmetry promotes SUMO modification of the single‐stranded DNA‐binding protein RPA” (The EMBO Journal, 2021)

B1: 6-FAM-ds20ss32 (mixed)
DNA 1: GAAGCAAAACTAGCTACAGCTTTTTTTTTTTTTTTTTTTTTTTTTTTTTTTT
DNA 2: GCTGTAGCTAGTTTTGCTTC
B2: 6-FAM-ds20 (dsDNA)
DNA 1: GCTGTAGCTAGTTTTGCTTC
DNA 2: GAAGCAAAACTAGCTACAGC

Columns and labels:
[1] = target: Siz2 full length;RPA (Rfa1/Rfa2/Rfa3) (Saccharomyces cerevisiae? (budding …, UniProt Q12216;P22336;P26754;P26755 1-726;1-621;1-273;1-122, |)); test: EMSA; Siz2 titrated into RPA-DNA; 5 mM MgCl2; FP: 20 mM HEPES pH 7.5, 125 mM NaCl, 0.1% Tween-20, 23°C, 50 nM DNA (RPA/SUMO-RPA on ss32: 1 nM DNA, plus 5 mM MgCl2, 1 mM DTT); EMSA: same buffer with 5 mM MgCl2 (Fig 8 also 1 mM DTT), 23°C, 6% gel in 0.5x TBE; conditions: protein: recombinant;recombinant; tags: His6-Smt3 removed with Ulp1;noncleavable N-terminal His6 on Rfa2; copies: 1;1;1;1; label: 5' 6-FAM on strand 2 (fw20); 20 bp duplex, 3' overhang 32 nt (dT)
Siz2∆CT K65E K66E = target: T1, Siz2∆CT K65E K66E (Saccharomyces cerevisiae? (budding …, UniProt Q12216 1-420, K65E;K66E)); test: fluorescence polarization; FP: 20 mM HEPES pH 7.5, 125 mM NaCl, 0.1% Tween-20, 23°C, 50 nM DNA (RPA/SUMO-RPA on ss32: 1 nM DNA, plus 5 mM MgCl2, 1 mM DTT); EMSA: same buffer with 5 mM MgCl2 (Fig 8 also 1 mM DTT), 23°C, 6% gel in 0.5x TBE; conditions: protein: recombinant; tags: His6-thioredoxin removed with TEV; label: 5' 6-FAM on strand 1; blunt
T1 sequence: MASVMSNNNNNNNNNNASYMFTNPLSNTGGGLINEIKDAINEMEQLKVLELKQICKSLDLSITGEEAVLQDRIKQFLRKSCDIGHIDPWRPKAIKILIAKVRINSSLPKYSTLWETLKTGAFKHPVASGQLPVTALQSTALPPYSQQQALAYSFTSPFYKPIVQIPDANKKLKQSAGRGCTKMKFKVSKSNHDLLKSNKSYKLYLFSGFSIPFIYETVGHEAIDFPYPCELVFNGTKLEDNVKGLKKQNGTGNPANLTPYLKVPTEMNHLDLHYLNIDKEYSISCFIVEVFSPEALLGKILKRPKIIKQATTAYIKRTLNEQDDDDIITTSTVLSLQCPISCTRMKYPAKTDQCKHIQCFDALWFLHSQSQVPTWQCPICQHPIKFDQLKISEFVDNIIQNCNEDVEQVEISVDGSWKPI

Sequence of Siz2 full length;RPA (Rfa1/Rfa2/Rfa3) (Saccharomyces cerevisiae? (P22336 whole entry, chain 2 of 3): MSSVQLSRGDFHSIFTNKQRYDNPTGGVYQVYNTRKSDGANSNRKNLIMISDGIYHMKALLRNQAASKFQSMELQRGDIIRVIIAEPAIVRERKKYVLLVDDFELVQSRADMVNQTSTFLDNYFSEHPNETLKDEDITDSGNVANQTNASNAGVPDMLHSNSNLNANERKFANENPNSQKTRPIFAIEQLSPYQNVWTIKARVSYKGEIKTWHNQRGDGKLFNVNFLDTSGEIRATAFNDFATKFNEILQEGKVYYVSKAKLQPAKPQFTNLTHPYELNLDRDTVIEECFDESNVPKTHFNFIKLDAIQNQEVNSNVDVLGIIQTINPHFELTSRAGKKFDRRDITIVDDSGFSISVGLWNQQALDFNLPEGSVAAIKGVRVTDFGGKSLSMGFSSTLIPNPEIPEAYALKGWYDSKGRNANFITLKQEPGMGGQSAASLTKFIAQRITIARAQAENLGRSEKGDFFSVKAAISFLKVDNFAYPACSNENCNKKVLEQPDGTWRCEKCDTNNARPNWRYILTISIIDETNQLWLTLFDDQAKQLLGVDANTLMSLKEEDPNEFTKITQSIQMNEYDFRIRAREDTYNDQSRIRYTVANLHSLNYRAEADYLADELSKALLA
Sequence of Siz2 full length;RPA (Rfa1/Rfa2/Rfa3) (Saccharomyces cerevisiae? (P26754 whole entry, chain 3 of 3): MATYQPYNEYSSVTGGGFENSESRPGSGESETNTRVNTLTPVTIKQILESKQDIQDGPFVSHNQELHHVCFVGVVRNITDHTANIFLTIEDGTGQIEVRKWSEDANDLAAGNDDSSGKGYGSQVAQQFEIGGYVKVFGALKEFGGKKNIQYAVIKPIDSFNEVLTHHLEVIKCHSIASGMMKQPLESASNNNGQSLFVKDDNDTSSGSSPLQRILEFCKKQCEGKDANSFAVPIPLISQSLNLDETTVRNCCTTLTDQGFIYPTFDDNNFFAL
Sequence of Siz2 full length;RPA (Rfa1/Rfa2/Rfa3) (Saccharomyces cerevisiae? (P26755 whole entry, chain 4 of 3): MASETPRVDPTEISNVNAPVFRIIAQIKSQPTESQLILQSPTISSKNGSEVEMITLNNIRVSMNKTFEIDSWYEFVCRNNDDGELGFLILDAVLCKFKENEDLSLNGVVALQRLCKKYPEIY

Row | Binder | binding result [1] | binding result (Siz2∆CT K65E K66E)
1 | B1 | binds | 
2 | B2 |  | no binding
